Measured values taken from patent US20080260812A1 (TAKAMI MATSUYAMA C O KAGOSHIMA UNIVERSITY, published 2008).

B1: IgG-type FR-β monoclonal antibody clone 94b (antibody, V domains shown)
VH: EVQLQQSGAELVKPGASVRLSCTASGFNIKDTYMYWVKQRPEQGLEWIGRLDPANGNTRYDPKFQGKATITSDTSSNTAYLQLSSLTSEDTAVYYCAGDYPIIDYWGQGTTLTVSS
VL: DIVMSQSPSSLAVSAGEKVTMSCKSSQSLLNSRTRKTYLAWYQQKPGQSPKLLIYWASTRESGVPDRFTGSGSGTEFTLTISSVQAEDLAVYYCKQSYNLWTFGGGTKLEIKR
B2: IgG-type FR-β monoclonal antibody clone 36 (antibody, V domains shown)
VH: QVQLQQSGAELMKPGASLKISCKATGYTFSSYWIEWVKQRPGHGLQWIGEILPGSGSSNYNEKFKGKATFTADTSSNTAYMQLSSLTSEDSAVYYCARRGSSGSYFAMDYWGQGTSVTVSS
VL: DIQMTQSSSSFSVSLGDRVTITCKASEDIYNRLAWYQQKPGNAPRLLISGATSLETGVPLRFSGSGSGKDYTLSITSLQTEDIATYYCQQYWSTPWTFGGGTKLEIK
notes: also called clone 36 antibody; IgG monoclonal antibody against a human FR-β antigen (clone 36)

Experiments:
[1] = target: T1, folate receptor beta (FR-β) (human, UniProt P14207 17-230); assay: flow cytometry on FR-β gene-transfected B300-19 cells
T1 construct: whole, on cells; also called FR-β antigen; human FR-β antigen
Protocol: Using a mixture of 20 μl of lipofectamine (Gibco BRL), 1 μg of the purified pEF vector insert, and 1 ml of a Hank's balanced salt solution, the FR-β gene was transfected into B300-19 cells which were previously prepared at 1×10⁵ in 24 wells. […] Namely, 5×10⁵ B3001-9 cells were reacted with 0.1 ml of the FR-β antibody (1 mg/ml) at 4° C. for 30 minutes. The cells were washed 3 times with PBS containing 0.1% NaN₃ and 10% fetal calf serum, after which they were reacted with a fluorescence-labeled goat anti-mouse Ig antibody (BIOSOURCE) at 4° C. for 30 minutes. Then, the cells were washed twice with PBS containing 0.1% NaN₃ and 1% fetal calf serum, after which fluorescence of the cells was assayed using EPICS Elite (Coulter).

[2] = target: T2, folate receptor alpha (FR-α) (UniProt P15328 25-234, limits assumed); assay: flow cytometry on KB cells, fluorescence-labeled anti-mouse Ig
T2 construct: whole, on cells
T2 sequence (P15328 25-234 limits assumed): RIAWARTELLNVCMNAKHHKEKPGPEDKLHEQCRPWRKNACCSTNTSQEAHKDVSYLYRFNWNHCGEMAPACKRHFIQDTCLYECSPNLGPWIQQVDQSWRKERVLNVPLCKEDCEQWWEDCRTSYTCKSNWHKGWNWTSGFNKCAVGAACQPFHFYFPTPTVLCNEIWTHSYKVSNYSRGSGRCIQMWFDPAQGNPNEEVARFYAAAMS

T1 sequence (P14207 17-230): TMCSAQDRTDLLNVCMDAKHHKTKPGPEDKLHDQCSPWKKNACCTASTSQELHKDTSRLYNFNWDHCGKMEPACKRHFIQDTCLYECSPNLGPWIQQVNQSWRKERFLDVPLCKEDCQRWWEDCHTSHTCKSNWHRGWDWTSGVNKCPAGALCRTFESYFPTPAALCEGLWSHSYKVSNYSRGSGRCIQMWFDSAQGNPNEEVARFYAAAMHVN

| Binder | binding result [1] | binding result [2] |
| --- | --- | --- |
| B1 | binds | no binding |
| B2 |  | no binding |
